The test system of data set [1] is PQPQLPYPQPQLP
Put plainly: Competitive assay of PEP specificity for gliadin peptide versus Suc-Ala-Pro-pNA. It is filed as biochemical, wheat. The note with it: PQPQLPYPQPQLP vs Suc-Ala-Pro-pNA. As for the experimental part: Substrate Specificity. In addition to the reference substrates above, enzyme specificity was also evaluated using two immunogenic peptides derived from the sequence of γ-gliadin proteins in gluten. Both peptides were synthesized using solid-phase peptide synthesis. The peptide (SEQ ID NO:4) […] contains the immunodominant γII-epitope, and is resistant to proteolysis by pepsin or any pancreatic enzyme. PEP specificity toward this substrate was assessed in a competitive assay in which 100 μM (SEQ ID NO:4) […] and 100 μM Suc-Ala-Pro-pNA were mixed and reacted with 0.02 μM PEP at 25° C. The initial velocity of Suc-Ala-Pro-pNA cleavage was measured spectrophotometrically, whereas the initial velocity of (SEQ ID NO:4) […] hydrolysis was determined via HPLC. The apparent specificity, kcat/KM, for the hydrolysis of (SEQ ID NO:4) […] could be determined based on the known kcat/KM of the enzyme for Suc-Ala-Pro-pNA and the observed reaction rates of the two substrates. […]
The kcat/KM values of each PEP were determined in an assay mixture containing (SEQ ID NO:4) […] as well as Suc-Ala-Pro-pNA as a competing substrate. The rates of disappearance of both substrates were determined by independent detection methods. The initial rate of disappearance of (SEQ ID NO:4) […] was measured by HPLC, whereas the rate of consumption of Suc-Ala-Pro-pNA was measured spectrophotometrically. […]

In data set [2] the test system is PQPQLPYPQPQLP and LQLQPFPQPQLPYPQPQLPYPQPQLPYPQPQPF
Description: Competitive proteolysis of 13-mer and 33-mer by each PEP. Type of data set: biochemical, wheat. Conditions: 50 μM PQPQLPYPQPQLP, 10 μM 33-mer, 0.1 μM PEP. The protocol:
FIGS. 12A-12C. […] 10 μM of the longer peptide and 50 μM of the shorter peptide were co-incubated with 0.1 μM of (A) FM PEP; (B) MX PEP; (C) SC PEP.
To examine the chain length specificity of individual PEPs, we performed competitive reactions containing both gluten-derived peptides, subjected the reaction mixture to RP-HPLC, and monitored the disappearance of each substrate was monitored as a function of time.

The test system of data set [3] is trypsin, chymotrypsin, elastase and carboxypeptidase A. Description: Pancreatic protease stability. It is filed as in vitro ADME. Conditions: pH 6.5. The protocol:
FIG. 9. Resistance of the FM PEP and the MX PEP to inactivation by gastric and pancreatic enzymes. Pancreatic enzyme stability was evaluated by treating 5 U/ml of the FM PEP and the MX PEP with 1 mg/ml trypsin, 1 mg/ml chymotrypsin, 0.2 mg/ml elastase and 0.2 mg/ml carboxypeptidase A (40 mM phosphate, pH=6.5). Pepsin stability was tested by treating the FM PEP and the MX PEP (5 U/ml) with 1 mg/ml pepsin (pH=2, 20 mM HCl).
Gastric and Pancreatic Protease Stability. […] Absorption was measured at 410 nm for 1 to 2 min every 10 s to assay residual activity. […] Enzyme activities are expressed as a percentage of the maximum activity, typically observed at the zero time point.
PEP Stability. […] We therefore evaluated the extent to which the activity of each PEP remains intact after 10 min of incubation at selected pH values between 1.6 and 3.9. […] Since therapeutic efficacy would require a PEP to act upon gluten in conjunction with pancreatic proteases that are secreted into the duodenum, the resistance of FM PEP and MX PEP toward both gastric and pancreatic enzymes was evaluated. For this we pre-incubated the enzymes with physiological quantities of either pepsin (at pH 2) or a cocktail comprising of trypsin, chymotrypsin, elastase and carboxypeptidase A (at pH 6.5).

Data set [4] in a line: pH stability (activity retained after acid exposure). The note with it: after 10 min of incubation at pH values between 1.6 and 3.9. It is filed as in vitro ADME. As for the experimental part:
pH Stability. The ability to retain enzyme activity after exposure to acidic environments was determined. […] The recovered enzyme activity was measured spectrophotometrically and compared with non-acid treated controls under identical conditions. PEP Stability. Although orally administered therapeutic proteins can be formulated to protect them from the acidic and proteolytic environment of the stomach, intrinsic acid stability of a PEP is likely to be a desirable characteristic in its use as a therapeutic agent for Celiac Sprue. […] Thus, although all PEPs appear to be moderately acid-stable, the MX PEP is most versatile. Since therapeutic efficacy would require a PEP to act upon gluten in conjunction with pancreatic proteases that are secreted into the duodenum, the resistance of FM PEP and MX PEP toward both gastric and pancreatic enzymes was evaluated. For this we pre-incubated the enzymes with physiological quantities of either pepsin (at pH 2) or a cocktail comprising of trypsin, chymotrypsin, elastase and carboxypeptidase A (at pH 6.5).

B1: MX PEP: novel recombinant prolyl endopeptidase from Myxococcus xanthus (Genbank AF127082, SEQ ID NO:47) (protein, listed as Myxococcus xanthus)
chain: MSYPATRAEQVVDTLHGVQVADPYRWLEDEKAPEVQTWMTAQNAHAREALAKFPGREALAARFKELFYTDSVSTPSRRNGRFFYVRTHKDKEKAILYWRQGESGQEKVLLDPNGWSKDGTVSLGTWAVSWDGKKVAFAQKPNAADEAVLHVIDVDSGEWSKVDVIEGGKYATPKWTPDSKGFYYEWLPTDPSIKVDERPGYTTIRYHTLGTEPSKDTVVHERTGDPTTFLQSDLSRDGKYLFVYILRGWSENDVYWKRPGEKDFRLLVKGVGAKYEVHAWKDRFYVLTDEGAPRQRVFEVDPAKPARASWKEIVPEDSSASLLSVSIVGGHLSLEYLKDATSEVRVATLKGKPVRTVQLPGVGAASNLMGLEDLDDAYYVFTSFTTPRQIYKTSVSTGKSELWAKVDVPMNPEQYQVEQVFYASKDGTKVPMFVVHRKDLKRDGNAPTLLYGYGGFNVNMEANFRSSILPWLDAGGVYAVANLRGGGEYGKAWHDAGRLDKKQNVFDDFHAAAEYLVQQKYTQPKRLAIYGGSNGGLLVGAAMTQRPELYGAVVCAVPLLDMVRYHLFGSGRTWIPEYGTAEKPEDFKTLHAYSPYHHVRPDVRYPALLMMAADHDDRVDPMHARKFVAAVQNSPGNPATALLRIEANAGHGGADQVAKAIESSVDLYSFLFQVLDVQGAQGGVAAQGR
Regarding B1, the “higher specificity for the gluten peptide as compared to the chromogenic substrate” value in data set [1] amounted to 5 fold. Also, the “chain length selectivity, 13-mer vs 33-mer” value in data set [2] is reported as “clear preference for the 13-mer peptide”. In addition, the “resistance to pancreatic enzymes” value in data set [3] was “remarkably stable to destruction”. For the same molecule, the original activity retained in data set [4] is listed as 70-90%.

B2: FM PEP: recombinant prolyl endopeptidase from Flavobacterium meningosepticum (Genbank D10980) (protein)
chain: QNSNVLKYPETKKVSHTDTYFGTQVSDPYRWLEDDRAEDTKAWVQQEVKFTQDYLAQIPFRDQLKKQLMDIWNYEKISAPFKKGKYTYFSKNDGLQAQSVLYRKDAAGKTEVFLDPNKFSEKGTTSLASVSFNKKGTLVAYSISEGGSDWNKIIILDAETKKQLDETLLDVKFSGISWLGDEGFFYSSYDKPKEGSVLSGMTDKHKVYFHKLGTKQSQDELIIGGDKFPRRYIGAYVTDDQRYLVVSAANATNGNELYIKDLKNKTDFIPIITGFDSNVNVADTDGDTLYLFTDKDAPNKRLVKTTIQNPKAETWKDVIAETSEPLEINTGGGYFFATYMKDAIDQVKQYDKNGKLVRAIKLPGSGNASGFGGEKTEKDLYYSFTNYITPPTIFKYNVTTGNSEVYQKPKVKFNPENYVSEQVFYTSSDGTKIPMMISYKKGLKKDGKNPTILYSYGGFNISLQPAFSVVNAIWMENGGIYAVPNIRGGGEYGKKWHDAGTKMQKKNVFNDFIAAGEYLQKNGYTSKEYMALSGRSNGGLLVGATMTMRPDLAKVAFPGVGVLDMLRYNKFTAGAGWAYDYGTAEDSKEMFEYLKSYSPVHNVKAGTCYPSTMVITSDHDDRVVPAHSFKFGSELQAKQSCKNPILIRIETNAGHGAGRSTEQVVAENADLLSFALYEMGIKSLK
As to B2, the “higher specificity for the gluten peptide as compared to the chromogenic substrate” value in data set [1] was 5 fold. The “chain length selectivity, 13-mer vs 33-mer” value in data set [2] was “comparable selectivity for both peptides”. Besides, in data set [3], the “resistance to pancreatic enzymes” value was “remarkably stable to destruction”. Besides, the original activity retained in data set [4] is 50-70%.

The values above are taken from patent US8796201B2 (The Board of Trustees of the Leland Stanford Junior …, priority 2002, dated 2014).
